# Measured values from article PMC314469, “Protein Interaction Networks by Proteome Peptide Scanning” (PLoS Biology, 2004).
# T1: Boi1 SH3 (BOI1_YEAST), P38041
# T1 chain: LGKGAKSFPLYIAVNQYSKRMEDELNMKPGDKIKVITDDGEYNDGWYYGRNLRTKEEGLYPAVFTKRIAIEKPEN
# T2: Boi2 SH3 (BOI2_YEAST), P39969
# T2 chain: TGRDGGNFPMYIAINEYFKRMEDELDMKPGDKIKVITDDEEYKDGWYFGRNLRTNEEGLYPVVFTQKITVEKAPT
# T3: Rvs167 SH3 (RV167_YEAST), P39743
# T3 chain: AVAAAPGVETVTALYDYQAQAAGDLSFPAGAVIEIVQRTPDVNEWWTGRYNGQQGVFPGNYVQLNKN
# T4: Yfr024 SH3 (LSB3_YEAST), P43603
# T4 chain: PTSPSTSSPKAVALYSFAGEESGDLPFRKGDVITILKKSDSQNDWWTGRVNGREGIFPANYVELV
# T5: Yhr016c SH3 (YSC84_YEAST), P32793
# T5 chain: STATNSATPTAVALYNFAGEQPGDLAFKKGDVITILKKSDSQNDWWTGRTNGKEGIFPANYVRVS
# B1: YNL238W 661-674 (peptide)
# chain: DSDPNTPKKLSSPR
# B2: YDL106C 73-86 (peptide)
# chain: DSGPQRPKRTRAKG
# B3: YHR118C 82-95 (peptide)
# chain: DSIPLEPKKAKHLM
# B4: YMR221C 258-271 (peptide)
# chain: DSIPSRPQRRKSVL
# B5: YBL015W 216-229 (peptide)
# chain: DSIPVDPEKVVAIV
# B6: YBR056W 139-152 (peptide)
# chain: DSLPFAPLRKVYEL
# B7: YBR132C 490-503 (peptide)
# chain: DSLPKLPFRSWGQP
# B8: YKL185W 464-477 (peptide)
# chain: DSPPQSPRRSSNSS
# B9: YOL055C 314-327 (peptide)
# chain: DVIPKKPLKSAADK
# B10: YCR102C 122-135 (peptide)
# chain: DVLPAGPVRSLEGA
# B11: YLR460C 130-143 (peptide)
# chain: DVLPAGPVRSLEGV
# B12: YOR042W 337-350 (peptide)
# chain: DVPPQLPTRTKSGE
# B13: YER081W 311-324 (peptide)
# chain: DVYPHEPAKNGEGS
# B14: YDR322W 274-287 (peptide)
# chain: DYLPPVPEKNAGKQ
# B15: YDR103W 109-122 (peptide)
# chain: DYLPQHPHRTSSLP
# B16: YJL204C 669-682 (peptide)
# chain: DYNPPPPSRNSPIR
# B17: YOL070C 274-287 (peptide)
# chain: DYNPTIPPRSKDRP
# Experiments:
# Assay in all cases: SPOT array
# [1] = molecular target: T1, Boi1 SH3 (BOI1_YEAST), P38041
# [2] = molecular target: T2, Boi2 SH3 (BOI2_YEAST), P39969
# [3] = molecular target: T3, Rvs167 SH3 (RV167_YEAST), P39743
# [4] = molecular target: T4, Yfr024 SH3 (LSB3_YEAST), P43603
# [5] = molecular target: T5, Yhr016c SH3 (YSC84_YEAST), P32793
Binder,"normalised SPOT signal, Boehringer light units (BLU); mean over the file's lines of this peptide [1]","normalised SPOT signal, Boehringer light units (BLU); mean over the file's lines of this peptide [2]","normalised SPOT signal, Boehringer light units (BLU); mean over the file's lines of this peptide [3]","normalised SPOT signal, Boehringer light units (BLU); mean over the file's lines of this peptide [4]","normalised SPOT signal, Boehringer light units (BLU); mean over the file's lines of this peptide [5]"
B1,108,22.9,0,28.1,156
B2,460,91.1,218,38900,4170
B3,389,26.5,33.7,141,206
B4,1520,334,651,27600,4310
B5,50,22.2,37.9,0,0
B6,61.9,34.7,156,322,200
B7,179,25.7,16100,39100,60200
B8,309,15.6,41.3,15900,3410
B9,142,35.9,9.7,359,37
B10,24.6,45.9,0,137,221
B11,28.2,44,32.7,4,0
B12,76.3,61.9,23600,27900,73200
B13,98.3,37.8,44.3,125,223
B14,47.4,91.7,42.3,681,198
B15,17.6,33.4,109,206,172
B16,194,31.1,9.9,874,323
B17,35500,11300,3120,6750,2400
